*1 amine or outer side, *2 acyl side, *3 side chain or, on linkers, in order; H or OH if unused. Where no end group is shown, it is not given here. Side-chain parts run from the residue outwards. [ ]: non-standard residue; d: D form. The star is where a group is joined. Butanoyl(4-(4-tBuPh)) = CC(C)(C)c1ccc(CCCC(=O)*)cc1; γGlu = O=C(O)[C@H](CCC(=O)[*:2])N[*:1]; αMeY = C[C@](N)(Cc1ccc(O)cc1)C(=O)O; αMeF = C[C@](N)(Cc1ccccc1)C(=O)O; αMeL = CC(C)C[C@](C)(N)C(=O)O; Orn = NCCC[C@H](N)C(=O)O; AEEA = NCCOCCOCC(=O)O; Aib = CC(C)(N)C(=O)O

Common to all, as to assay: cell-based or functional assay
Experiment [1] addresses human glucagon receptor (human, UniProt P47871 26-477).
For experiment [2], the target named is T1, human glucose-dependent insulinotropic polypeptide (GIP) receptor (human, UniProt P48546 22-466).
T1 sequence (looked up): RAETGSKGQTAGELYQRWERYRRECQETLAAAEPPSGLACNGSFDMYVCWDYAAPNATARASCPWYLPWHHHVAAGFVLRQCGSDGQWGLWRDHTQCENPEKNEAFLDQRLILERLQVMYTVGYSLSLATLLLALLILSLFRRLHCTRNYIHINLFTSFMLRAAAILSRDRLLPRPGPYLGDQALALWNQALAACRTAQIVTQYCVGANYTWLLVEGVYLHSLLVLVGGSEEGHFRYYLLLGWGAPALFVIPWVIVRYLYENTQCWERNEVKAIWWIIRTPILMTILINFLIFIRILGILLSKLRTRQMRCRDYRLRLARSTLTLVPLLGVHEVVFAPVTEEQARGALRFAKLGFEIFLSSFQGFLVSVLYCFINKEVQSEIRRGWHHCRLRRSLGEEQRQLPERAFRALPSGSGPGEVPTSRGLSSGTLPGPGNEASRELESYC

For experiment [3], the target named is human glucagon-like peptide-1 (GLP-1) receptor (human, UniProt P43220 24-463).

B1: Y-Aib-EGT-αMeF(2F)-TSD-4Pal-SI-αMeL-LD-Orn-K((2-[2-(2-Amino-ethoxy)-ethoxy]-acetyl)2-(γ-Glu)-CO-(CH2)10-CH3)AQ-Aib-EFI-(D-Glu)-αMeY-LIEGGK((2-[2-(2-Amino-ethoxy … (peptide)
peptide: YXEGTXTSDXSIXLDXKAQXEFIXXLIEGGKSSGAPPPS
modifications: Aib2, αMeF(2F)6, 4Pal10, αMeL13, Orn16, Aib20, D-Glu24, αMeY25; acylated K17, K31 (groups as in name); C-terminal amide
On to B1, for which the “cAMP EC50 (1.0% HSA)” value in experiment [1] is above 9.95 µM.

B2: Y-Aib-EGT-αMeF(2F)-TSD-4Pal-SI-αMeL-LD-Orn-K((2-[2-(2-Amino-ethoxy)-ethoxy]-acetyl)2-(γ-Glu)-CO-(CH2)12-CH3)AQ-Aib-EFI-(D-Glu)-αMeY-LIEGGK((2-[2-(2-Amino-ethoxy … (peptide)
peptide: YXEGTXTSDXSIXLDXKAQXEFIXXLIEGGKSSGAPPPS
modifications: Aib2, αMeF(2F)6, 4Pal10, αMeL13, Orn16, Aib20, D-Glu24, αMeY25; acylated K17, K31 (groups as in name); C-terminal amide
As to B2, the “cAMP EC50 (1.0% HSA)” value in experiment [1] was above 9.95 µM.

B3: Y-Aib-EGT-αMeF(2F)-TSD-4Pal-SI-αMeL-LD-Orn-K((2-[2-(2-Amino-ethoxy)-ethoxy]-acetyl)2-(γ-Glu)-(10-(4-carboxyphenoxy)decanoyl))AQ-Aib-EFI-(D-Glu)-αMeY-LIEGGK((2-[ … (peptide)
peptide: YXEGTXTSDXSIXLDXKAQXEFIXXLIEGGKSSGAPPPS
modifications: Aib2, αMeF(2F)6, 4Pal10, αMeL13, Orn16, Aib20, D-Glu24, αMeY25; acylated K17, K31 (groups as in name); C-terminal amide
As to B3, the “cAMP EC50 (1.0% HSA)” value in experiment [1] is above 9.95 µM.

B4: Y-Aib-EGT-αMeF(2F)-TSD-4Pal-SI-αMeL-LD-Orn-K((2-[2-(2-Amino-ethoxy)-ethoxy]-acetyl)2-(γ-Glu)-(4-(4-tert-butylphenyl)butanoyl))AQ-Aib-EFI-(D-Glu)-αMeY-LIEGGK((2- … (peptide)
peptide: YXEGTXTSDXSIXLDXKAQXEFIXXLIEGGKSSGAPPPS
modifications: Aib2, αMeF(2F)6, 4Pal10, αMeL13, Orn16, Aib20, D-Glu24, αMeY25; acylated K17, K31 (groups as in name); C-terminal amide
B4: in experiment [1], the “cAMP EC50 (1.0% HSA)” value was above 9.95 µM.

B5: Y-Aib-EGT-αMeF(2F)-TSD-4Pal-SI-αMeL-LD-Orn-K((2-[2-(2-Amino-ethoxy)-ethoxy]-acetyl)2-(10-(4-carboxyphenoxy)decanoyl))AQ-Aib-EFI-(D-Glu)-αMeY-LIEGGK((2-[2-(2-Ami … (peptide)
peptide: YXEGTXTSDXSIXLDXKAQXEFIXXLIEGGKSSGAPPPS
modifications: Aib2, αMeF(2F)6, 4Pal10, αMeL13, Orn16, Aib20, D-Glu24, αMeY25; acylated K17, K31 (groups as in name); C-terminal amide
With B5, in experiment [1], the “cAMP EC50 (1.0% HSA)” value is above 9.95 µM.

B6: Y-Aib-EGT-αMeF(2F)-TSD-4Pal-SI-αMeL-LD-Orn-K((2-[2-(2-Amino-ethoxy)-ethoxy]-acetyl)2-(γ-Glu)-CO-(CH2)14-CH3)AQ-Aib-EFI-(D-Glu)-αMeY-LIEGGK((2-[2-(2-Amino-ethoxy … (peptide)
peptide: YXEGTXTSDXSIXLDXKAQXEFIXXLIEGGKSSGAPPPS
modifications: Aib2, αMeF(2F)6, 4Pal10, αMeL13, Orn16, Aib20, D-Glu24, αMeY25; acylated K17, K31 (groups as in name); C-terminal amide
Regarding B6, the “cAMP EC50 (1.0% HSA)” value in experiment [1] was above 9.95 µM.

B7: Y-Aib-EGT-αMeF(2F)-TSD-4Pal-SI-αMeL-LD-Orn-K((2-[2-(2-Amino-ethoxy)-ethoxy]-acetyl)2-(γ-Glu)-(4-(4-iodophenyl)butanoyl))AQ-Aib-EFI-(D-Glu)-αMeY-LIEGGK((2-[2-(2- … (peptide)
peptide: YXEGTXTSDXSIXLDXKAQXEFIXXLIEGGKSSGAPPPS
modifications: Aib2, αMeF(2F)6, 4Pal10, αMeL13, Orn16, Aib20, D-Glu24, αMeY25; acylated K17, K31 (groups as in name); C-terminal amide
Consider B7, for which the “cAMP EC50 (1.0% HSA)” value in experiment [1] is above 9.95 µM.

B8: Example 178 (peptide)
peptide: Y[Aib]EGT[αMeF]TSDV[Aib]I[αMeL]LD[Orn]K([AEEA-AEEA-γGlu-Butanoyl(4-(4-tBuPh))])AQ[Aib]EFI[dE][αMeY]LIEGGK([AEEA-AEEA-γGlu-Butanoyl(4-(4-tBuPh))])SSGAPPPS-NH2
modifications: N-terminus assumed
SMILES: CC[C@H](C)[C@H](NC(=O)[C@H](CC(C)C)NC(=O)[C@](C)(Cc1ccc(O)cc1)NC(=O)[C@@H](CCC(=O)O)NC(=O)[C@@H](NC(=O)[C@H](Cc1ccccc1)NC(=O)[C@H](CCC(=O)O)NC(=O)C(C)(C)NC(=O)[C@H](CCC(N)=O)NC(=O)[C@H](C)NC(=O)[C@H](CCCCNC(=O)COCCOCCNC(=O)COCCOCCNC(=O)CC[C@H](NC(=O)CCCc1ccc(C(C)(C)C)cc1)C(=O)O)NC(=O)[C@H](CCCN)NC(=O)[C@H](CC(=O)O)NC(=O)[C@H](CC(C)C)NC(=O)[C@](C)(CC(C)C)NC(=O)[C@@H](NC(=O)C(C)(C)NC(=O)[C@@H](NC(=O)[C@H](CC(=O)O)NC(=O)[C@H](CO)NC(=O)[C@@H](NC(=O)[C@](C)(Cc1ccccc1)NC(=O)[C@@H](NC(=O)CNC(=O)[C@H](CCC(=O)O)NC(=O)C(C)(C)NC(=O)[C@@H](N)Cc1ccc(O)cc1)[C@@H](C)O)[C@@H](C)O)C(C)C)[C@@H](C)CC)[C@@H](C)CC)C(=O)N[C@@H](CCC(=O)O)C(=O)NCC(=O)NCC(=O)N[C@@H](CCCCNC(=O)COCCOCCNC(=O)COCCOCCNC(=O)CC[C@H](NC(=O)CCCc1ccc(C(C)(C)C)cc1)C(=O)O)C(=O)N[C@@H](CO)C(=O)N[C@@H](CO)C(=O)NCC(=O)N[C@@H](C)C(=O)N1CCC[C@H]1C(=O)N1CCC[C@H]1C(=O)N1CCC[C@H]1C(=O)N[C@@H](CO)C(N)=O
With B8, in experiment [2], the “cAMP EC50” value was 0.00011 µM and the “cAMP Emax” value was found to be 105%. Besides, the “cAMP EC50” value in experiment [3] was 0.00022 µM.
